Values of other authors as cited in publication PMC4082410.

How the values were obtained:
Experiment in all cases: kinetics
[1] = biological target: preMADH (Paracoccus denitrificans) (UniProt P22619)
[2] = biological target: quinol MADH (Paracoccus denitrificans) (UniProt P22619)
[3] = biological target: quinone MADH (Paracoccus denitrificans) (UniProt P22619)

## bis-Fe(IV) MauG (from UniProt Q51658)
[1]
  Kd: < 1.5 µM
[2]
  Kd: 11.2 µM

## diferrous MauG (from UniProt Q51658)
[3]
  Kd: 10.1 µM
